The values below come from ChEMBL document CHEMBL1138079.

Substrate in data set [1]: NC(=O)c1cc(N2CC2)c([N+](=O)[O-])cc1[N+](=O)[O-]
Nature of the data set: Activity against Escherichia coli nitroreductase.

The target of data set [2] is Oxygen-insensitive NAD(P)H nitroreductase NfsB (Escherichia coli) (UniProt P38489). Nature of the data set: Activity against Escherichia coli nitroreductase.

B1: Oxygen-insensitive NAD(P)H nitroreductase (Escherichia coli K-12), P38489 (protein)
chain: MDIISVALKRHSTKAFDASKKLTPEQAEQIKTLLQYSPSSTNSQPWHFIVASTEEGKARVAKSAAGNYVFNERKMLDASHVVVFCAKTAMDDVWLKLVVDQEDADGRFATPEAKAANDKGRKFFADMHRKDLHDDAEWMAKQVYLNVGNFLLGVAALGLDAVPIEGFDAAILDAEFGLKEKGYTSLVVVPVGHHSVEDFNATLPKSRLPQNITLTEV
By Km is commonly meant the concentration of substrate that gives half-maximal velocity. For the protein B1, the Km came out at 881 µM in data set [1] and 195 µM in data set [2].
